# Where “and” joins values, the source holds several entries; their conditions need not be identical. Equal entries are not always repeated.
# Target: T1, human GLP-1 receptor (Homo sapiens, UniProt P43220)
# T1 construct: expressed in transfected cells; host or cells: HEK-293 Aurora CRE-BLAM cells
# Assay: GLP-1 receptor activation (in vitro potency, CRE-BLAM fluorescence assay)
# Type: cell-based
# Conditions: relative in vitro potency from EC50, HEK-293 Aurora CRE-BLAM cells; Val^8-GLP-1(7-37)OH control = 1
# Text: These HEK-293 cells have stably integrated a DNA vector having a cAmp response element (CRE) driving expression of the β-lactamase (BLAM) gene. […] The assay is further described in Zlokarnik, et al., (1998) Science 279:84-88 (See also Example 1).
# T1 sequence (P43220 24-463): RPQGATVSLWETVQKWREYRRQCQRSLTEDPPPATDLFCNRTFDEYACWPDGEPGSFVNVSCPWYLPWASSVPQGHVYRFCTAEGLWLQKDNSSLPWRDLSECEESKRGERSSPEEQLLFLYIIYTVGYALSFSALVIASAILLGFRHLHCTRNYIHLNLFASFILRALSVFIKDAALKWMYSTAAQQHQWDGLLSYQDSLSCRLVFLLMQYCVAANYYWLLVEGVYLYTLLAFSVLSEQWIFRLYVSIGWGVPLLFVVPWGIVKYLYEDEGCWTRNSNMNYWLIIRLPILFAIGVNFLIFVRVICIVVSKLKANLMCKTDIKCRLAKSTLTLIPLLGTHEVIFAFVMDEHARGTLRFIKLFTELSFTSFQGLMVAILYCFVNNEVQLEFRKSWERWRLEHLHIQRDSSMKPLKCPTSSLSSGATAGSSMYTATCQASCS
row,Substance,GLP-1 receptor activation relative to Val^8-GLP-1(7-37)OH
1,Val^8-Cys^16-Lys^26-Arg^34-GLP-1(7-37)OH,2.4 and 1.9
2,Val^8-Cys^16-Lys^26-GLP-1(7-37)OH,4.2
3,Val^8-Glu^22-Ile^33-GLP-1(7-37)OH (HVEGTFTSDVSSYLEEQAAKEFIAWLIKGRG),4.7 and 3.8 and 3.4
4,Val^8-Glu^22-Val^25-GLP-1(7-37)OH (HVEGTFTSDVSSYLEEQAVKEFIAWLVKGRG),4.7 and 2.9
5,Val^8-Glu^22-Val^25-Ile^33-GLP-1(7-37)OH (HVEGTFTSDVSSYLEEQAVKEFIAWLIKGRG),4.9 and 5.8 and 6.7
6,Val^8-Trp^16-Glu^22-GLP-1(7-37)OH (HVEGTFTSDWSSYLEEQAAKEFIAWLVKGRG),4.9 and 4.6
7,Val^8-Tyr^16-Glu^22-GLP-1(7-37)OH (HVEGTFTSDYSSYLEEQAAKEFIAWLVKGRG),3.6 and 3.8
8,Val^8-Tyr^18-Glu^22-GLP-1(7-37)OH (HVEGTFTSDVSYYLEEQAAKEFIAWLVKGRG),5.1 and 5.9
9,Val^8-Val^16-GLP-1(7-37)OH,1.1

# System: not listed separately
# Assay: GLP aggregation assay (turbidity at 350 nm)
# Type: physicochemical
# Conditions: compared to GLP-1(7-37)OH or Val^8-GLP-1(7-37)OH
# Experimental: GLP peptides can be analyzed with respect to their potential to aggregate in solution.
# In general, peptides in solution are stirred at elevated temperature in a suitable buffer while recording turbidity at 350 nm as a function of time. Time to the onset of aggregation is measured to quantify the potential of a given GLP molecule to aggregate under these stressed conditions.
# A GLP-1 compound is first dissolved under alkaline conditions (pH 10.5) for 30 minutes to dissolve any pre-aggregated material. The solution is then adjusted to pH 7.4 and filtered. Specifically, 4 mg of a lyophilized GLP-1 compound is dissolved in 3 ml of 10 mM phosphate/10 mM citrate. The pH is adjusted to 10.0-10.5 and held for 30 minutes. The solution is adjusted with HCl to pH 7.4 and filtered through a suitable filter, for example a Millex GV syringe filter (Millipore Corporation, Bedford, Mass.). This solution is then diluted to a final sample containing 0.3 mg/mL protein in 10 mM citrate, 10 mM phosphate, 150 mM NaCl, and adjusted to pH 7.4 to 7.5. The sample is incubated at 37° C. in a quartz cuvette. Every five minutes the turbidity of the solution is measured at 350 nm on an AVIV Model 14DS UV-VIS spectrophotometer (Lakewood, N.J.). For 30 seconds prior to and during the measurement the solution is stirred using a magnetic stir bar from Stama Cells, Inc. (Atascadero, Calif.). An increase in OD at 350 nm indicates aggregation of the GLP-peptide. The time to aggregation is approximated by the intersection of linear fits to the pre-growth and growth phase according to method of Drake(Arvinte T, Cudd A, and Drake A F.(1993) J. Bio. Chem. 268, 6415-6422).
# The cuvette is cleaned between experiments with a caustic soap solution (e.g., Contrad-70).
# The results for a number of GLP-1 compounds are reported in Table 8 as the time in hours required for the compound to aggregate.
row,Substance,propensity to aggregate in solution
1,Val^8-Glu^22-GLP-1(7-37)OH (HVEGTFTSDVSSYLEEQAAKEFIAWLVKGRG),markedly decreased propensity to aggregate
2,Val^8-Glu^30-GLP-1(7-37)OH (HVEGTFTSDVSSYLEGQAAKEFIEWLVKGRG),markedly decreased propensity to aggregate
3,Val^8-His^37-GLP-1(7-37)OH (HVEGTFTSDVSSYLEGQAAKEFIAWLVKGRH),markedly decreased propensity to aggregate

# System: not listed separately
# Assay: GLP-1 compound/soluble basal insulin mixtures: clarity and final concentrations by HPLC
# Type: physicochemical
# Conditions: 2.1 mg in 1 ml 0.01 N HCl, pH 11.3 then adjusted to 4.0
# Experimental: Exendin-4 (160 μg) was dissolved in 100 μL of commercial Lantus® insulin ([…], 3.6378 mg/mL). […] The solution was stored at 5° C. […] The pH was 4.0 Final concentrations of Exendin-4 and Lantus® were determined by reverse phase HPLC to be 0.9 mg/mL Exendin-4 and 3.5 mg/mL Lantus®. Based on known concentrations of excipients in the commercial formulation of Lantus®, the final concentrations of excipients in the mixture were as follows: 2.7 mg/mL m-cresol, 30 μg/mL zinc, and 17 mg/ml glycerol.
# Exendin-4 (290 μg) was dissolved in 100 μL of commercial Lantus® insulin U100, 3.6378 mg/mL). […] The pH of the solution was adjusted to 4.0 with NaOH. Final concentrations of Exendin-4 and Lantus® were determined by reverse phase HPLC to be 1.6 mg/mL Exendin-4 and 3.5 mg/mL Lantus®. […]
# Exendin-4 (529 μg) was dissolved in 500 μL of commercial Lantus® insulin (U100, 3.6378 mg/mL). […] Final concentrations of Exendin-4 and Lantus® were calculated to be 1 mg/mL Exendin-4 and 3.5 mg/mL Lantus®. […]
# A stock solution of Val^8-Glu^22-GLP-1(7-37)OH was prepared by dissolving 2.1 mg of Val^8-Glu^22-GLP-1(7-37)OH in 1 ml of 0.01 N HCl. […] Final concentrations of Val^8-Glu^22-GLP-1(7-37)OH and Lantus® were determined by reverse phase HPLC to be 0.5 mg/mL Val^8-Glu^22-GLP-1(7-37)OH and 2.4 mg/mL Lantus®. […]
row,Substance,appearance of stock solution
1,Val^8-Glu^22-GLP-1(7-37)OH (HVEGTFTSDVSSYLEEQAAKEFIAWLVKGRG),remained clear

# Same assay, conditions: 4.8 mg in 1.5 ml Stock solution A (glycerin, meta-cresol, zinc), pH 11 then adjusted to 4.0
row,Substance,appearance of stock solution
1,Val^8-Glu^22-GLP-1(7-37)OH (HVEGTFTSDVSSYLEEQAAKEFIAWLVKGRG),remained clear
